# Assay results published in the nanobody polyreactivity screen of Harvey et al. (2022).
# Assay: yeast display, Sf9 membrane polyspecificity reagent, FACS + sequencing; frameworks hold sequencing errors
# In short: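 Using colony PCR, genes from sorted yeast display clones were amplified, then sequenced on MiSeq at 2 × 250 and filtered by CDR length. The clones had been stained with 10% biotinylated, detergent-solubilized Sf9 membrane reagent for 1 hour at 4 °C and sorted by FACS into low and high (top ~1%) gates on anti-HA and streptavidin fluorescence. Polyreactivity labels come from the gate of origin.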
row,Sequence,polyreactivity (PSR sort gate)
1,QVQLVESGGGLVQAGGSLRLSCAASGSIFEWYAMGWYRQAPGKERELVADISSVGSTYYADSVKGRFTISRDNAKNTVYLQMNSLKPEDTAVYYCNTTYIIWYDSWGQGTQVTVSS,low polyreactivity
2,QVQLVESGGGLVQAGGSLRLSCAASGSIFEYNAMGWYRQAPGKERELVAAISWSSGTTYYADSVKGRFTISRDNAKNTVYLQMNSLKPEDTAVNYCIAGRYGKDSDYWGQGTQVTVSS,low polyreactivity
3,QVQLVESGGGLVQAGGSLRLSCAASGSIFEYNAMGWYRQAPGKERELVAAITDTGSITYYADSVKGRFTISRDNAKNTVYLQMNSLKPEDTAVYYCAARAYPATAVDRRQPGNYWGQGSQVTVSS,low polyreactivity
4,QVQLVESGGGLVQAGGSLRLSCAASGSIFEYNDMGWYRQAPGKERELVAAITTGGRTSYADSVKGRFTISRDNAKNTVYLQMNSLKPEDTAVYYCAAEPPAEFWTDRLVDYYVGYDYWGQGTQVTVSS,low polyreactivity
5,QVQLVESGGGLVQAGGSLRLSCAASGSIFFDGNAMGWYRQAPGKERELVAAINSGGTTKYADSVKGRFTISRDNAKNTVYLQMNSLKPEDTAVYYCNAREGVFRYPVAHDYWGQGTQVTVSS,low polyreactivity
6,QVQLVESGGGLVQAGGSLRLSCAASGSIFFDGNAMGWYRQAPGKERELVAAISVSGGSTYYADSVKGRFTISRDNAKNTVYLQMNSLKPDDTAVYYCAKFPSKSYVPGDYWGQGTQVTVSS,low polyreactivity
7,QVQLVESGGGLVQAGGSLRLSCAASGSIFFDGNAMGWYRQAPGKERELVAAISVSGGSTYYADSVKGRFTISRDNAKNTVYLQMNSVKPEDTAVYYCAKYPSKSYVPGDYWGQGTQVTVSS,low polyreactivity
8,QVQLVESGGGLVQAGGSLRLSCAASGSIFFGNAMGWYRQAPGKERELVAAITRRGGSTYYADSVKGRFTISRDNEKNTVYLQMNSLKPEDTAVYYCKAVSKRYGYGYWGLGTQVTVSS,high polyreactivity
9,QVQLVESGGGLVQAGGSLRLSCAASGSIFFGYAMGWYRQAPGKERELVAGISSNGGTTYYADSVKGRFTISRDYAKNTVYLQMNSLKPEDTAVYYCAKQYYARGYLYDYWGQGTQVTVSS,low polyreactivity
10,QVQLVESGGGLVQAGGSLRLSCAASGSIFFGYGMGWYRQAPGKERELVATITTSGGTYYADSVKGRFTISRDNAKNTVYLQMNSLKPEDTAVYYCAATAAALDGNTIMYYWGQGTQVTVSS,low polyreactivity
11,QVQLVESGGGLVQAGGSLRLSCAASGSIFFIYAMAWYRQAPGKERELVATISRSDVSTFYADSVKGRFTISRDNAKNTVYLQMNSLKPEDTAVYYCAARTGRGDRTRRYYYWGQGTQVTVSS,high polyreactivity
12,QVQLVESGGGLVQAGGSLRLSCAASGSIFFLYAMGWYRQAPGKERELVAAISGGGGSTYYADSVKGRFTISRDNAKNTVYLQMNSLKPEDTAVYYCDALSKTRGGYWGQGTQVTVSS,high polyreactivity
13,QVQLVESGGGLVQAGGSLRLSCAASGSIFFNNAMGWYRQAPGKERELVAAITTGGSTYYADSVKGRFTISRDNAKNTVYLQMNSLKPEDTAVYYCAAVVVYPYRLGYDYWGQGTQVTVSS,low polyreactivity
14,QVQLVESGGGLVQAGGSLRLSCAASGSIFFNTMGWYIQAPGKERELVAAISRSGGSTYYADSVKGRFTISRDNAKNTVYLQMNSLKPEDTAVYYCNALRWSQYTYSSRLGHFDSWGQGTQVTVSS,high polyreactivity
15,QVQLVESGGGLVQAGGSLRLSCAASGSIFFNTMGWYRQAPGKERELVAAISRSGGSTYYADSVKGRFTISRDNAKNTVYLQMNSLKPEDTAVYYCNALRWSQYTYSSRLGHFDSWGQGTQVTVSS,high polyreactivity
16,QVQLVESGGGLVQAGGSLRLSCAASGSIFFPYAMGWYRQAPGKERELVARISWGAGRTYYADSVKGRFTISRDNAKNTVYLQMNSLKPEDTAVYYCAARDRTRYAGYNYWGQGTQVTVSS,high polyreactivity

row,Sequence,polyreactivity (PSR sort gate)
1,QVQLVESGGGLVQAGGSLRLSCAASGSIFFPYVMGWYRQAPGKERELVAAIRRGGGSTYYADSVKGRFTISRDNAKNTVYLQMNSLKPEDTAVYYCAAKGWYVQHFKRGLYNYWGQGTQVTVSS,high polyreactivity
2,QVQLVESGGGLVQAGGSLRLSCAASGSIFFQNGMGWYRQAPGKERELVAAISSSGDSTYYADSVKGRFTISRDYAKNTVYLQMNSLKPEDTAVYYCAAEPEYVSGPYDYWGQGTQVTVSS,low polyreactivity
3,QVQLVESGGGLVQAGGSLRLSCAASGSIFFQYGMGWYRQAPGKEREFVAAISVSGGSTYYADSVKGRFTISRDNAKNTVYLQMNSLKPEDTAVYYCAAEFRGDTTSLVYASSYDYWGQGTQVTVSS,low polyreactivity
4,QVQLVESGGGLVQAGGSLRLSCAASGSIFFRNAMGWYRQAPGKEREFVAVINYSGGSTRYADSVKGRFTISRDNAKNTVYLQMNSLKPEDTAVYYCATRLYISKMYYWGQGTQVTVSS,high polyreactivity
5,QVQLVESGGGLVQAGGSLRLSCAASGSIFFSNDMGWYRQAPGKERELVASITRDGTSTYADSVKGRFTISRDNAKNTVYLQMNSLKPEETAVYYCAADRYLQGFYGRWHGYDSWGQGTQVTVSS,low polyreactivity
6,QVQLVESGGGLVQAGGSLRLSCAASGSIFFWYTMGWYRQAPGKERELVATITGSGSSTTYADSVKGRFTISRDNAKNTVYFQMNSLKPEDTAVYYCAAADIIDHSFPYDYWGQGTQVTVSS,low polyreactivity
7,QVQLVESGGGLVQAGGSLRLSCAASGSIFFWYTMGWYRQAPGKERELVATITGSGSSTTYADSVKGRFTISRDNAKNTVYLQMNSLKPEDTAVYYCAAADIIDHSFPYDYWGQGTQVTVSS,low polyreactivity
8,QVQLVESGGGLVQAGGSLRLSCAASGSIFFYAMGWYRQAPGKERELVADITYTGGSKYADSEKGRFTISRDNAKNTVYLQMNSLKPEETAVYSGATLDGGLFDDWGQGTQVTVSS,low polyreactivity
9,QVQLVESGGGLVQAGGSLRLSCAASGSIFFYNVMGWYRQAPGKERELVAAITRSGGRTYYADSVKGRFTISRDNAKNNVYLQMNSLKPEDTAVYYCAAALGGKFDYWGQGTQVTVSS,high polyreactivity
10,QVQLVESGGGLVQAGGSLRLSCAASGSIFFYYAMGWYRQAPGKERELVAAINWSGVNTYYADSVKGRFTISRDNAKNTVYLQMNSLKPEDTAVYYCNAVVSLTSYGYLGYRFDYWGQGTQVTVSS,low polyreactivity
11,QVQLVESGGGLVQAGGSLRLSCAASGSIFFYYAMGWYRQAPGKERELVASISTDGSTYADSVKGRFTISRDNAKNTVYLQMNSLKPEDTAVYYCATRGAEAERFASYDFDYWGQGTQVTVSS,low polyreactivity
12,QVQLVESGGGLVQAGGSLRLSCAASGSIFFYYAMGWYRQATGKERELVAAISIAGSTNYADSVKGRFTISRDNAKNTVYLQMNSLKPEDTAVYYCAKEYRWGQSQLDYWGQGTQVTVSS,low polyreactivity
13,QVQLVESGGGLVQAGGSLRLSCAASGSIFFYYTMGWYRQAPGKERELVAAITWSGGSTYYADSVKGRFTISRDNAKNTVYLQMNSLKPEDTAVYYCAAGTRLYYYRLNYWGQGTQVTVSS,high polyreactivity
14,QVQLVESGGGLVQAGGSLRLSCAASGSIFGANAMGWYRQAPGKERELVAAISTRGGRTYYADSVKARFTISRDNAKNTVSLQMNSLKPEDTALYYCAARRFSKVRSMYYWRQGTQVTVSS,high polyreactivity
15,QVQLVESGGGLVQAGGSLRLSCAASGSIFGAYAMGWYRQAPGKEREFVAAISSRGGNTYYADSVKGRFTISRDNAKNTVYLQMNSLKPEDTAVYYAVFRYHWKYDYWGQGTQVTVSS,high polyreactivity
